The record followed here is paper PMC9409278, “Conformational Changes of α-Crystallin Proteins Induced by Heat Stress” (International Journal of Molecular Sciences, 2022).

This data set concerns the molecule itself. Description: SEC; HiPrep Sephacryl S-300 HR 16/60 column, 20 mM phosphate buffer, pH 7.4, 150 mM NaCl; each crystallin alone. (Size exclusion chromatography separates by hydrodynamic size, large species first.)

B1: αB crystallin (natural protein, human, UniProt P02511 1-175, looked up)
chain: MDIAIHHPWIRRPFFPFHSPSRLFDQFFGEHLLESDLFPTSTSLSPFYLRPPSFLRAPSWFDTGLSEMRLEKDRFSVNLDVKHFSPEELKVKVLGDVIEVHGKHEERQDEHGFISREFHRKYRIPADVDPLTITSSLSSDGVLTVNGPRKQVSGPERTIPITREEKPAVTAAPKK
notes: αB crystallin, human, open reading frame of the full-length gene in pET28; Homo-oligomer in solution; No removal of the His tag is mentioned; also called alpha-B crystallin; source: E. coli BL21(DE3), purified (Ni-NTA, size-exclusion chromatography)
On to B1, for which the binding result is recorded as “binds”.
